Patent publication EP0308499B1, “SUBSTRATE ASSISTED CATALYSIS” (GENENCOR INTERNATIONAL, INC., priority 1987, dated 1988)
Numbered stars: 1 amine (or outer) side, 2 acyl side, 3 side chain; on linkers, the order of the positions; unused ones are H or OH. Peptide text beside a SMILES is read from it. * marks the point of attachment. pNA = O=[N+]([O-])c1ccc(N*)cc1; Suc = O=C(CCC(=O)[*:2])[*:1]

Key:
[1] = target: T1, B. amyloliquefaciens subtilisin mutant Cys-24/Ala-64 (Ser-24→Cys/His-64→Ala) (Bacillus amyloliquefaciens, UniProt P00782, H171A/S131C); test: Kinetic analysis of hydrolysis of p-nitroanilide peptide substrates (release of ρ-nitroaniline, Eadie-Hofstee plot); format: biochemical
T1 construct: The His-64→Ala mutation caused a severe reduction in secretion of mature subtilisin; made in house; host or cells: Bacillus subtilis BG2036, co-cultured with helper cells carrying active Ala-48→Glu subtilisin
T1 sequence (P00782 108-382 S131C/H171A): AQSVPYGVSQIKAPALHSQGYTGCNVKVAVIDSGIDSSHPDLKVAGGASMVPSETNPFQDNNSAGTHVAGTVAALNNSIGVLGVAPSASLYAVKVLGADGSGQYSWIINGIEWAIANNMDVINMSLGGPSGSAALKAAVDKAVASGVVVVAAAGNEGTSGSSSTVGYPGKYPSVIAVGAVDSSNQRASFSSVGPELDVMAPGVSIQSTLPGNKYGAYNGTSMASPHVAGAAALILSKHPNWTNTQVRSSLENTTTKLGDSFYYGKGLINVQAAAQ
Experimental: (§1) The kinetic parameters for Cys-24 and Cys-24/Ala-64 were determined against the substrates N-succinyl-L-Phe-L-Ala-L-[X)-L-Phe-ρ-nitroanilide (abbreviated sFAXF-pNA), where X (P2 position) was Ala, Gln, or His (Table I). […] By comparison, the His-64→Ala mutation causes a drop of ∿10⁶ fold in kcat/Km against the Ala and Gln P2 substrates. Almost all of the decrease in catalytic efficiency is caused by a decreased kcat term (up to 10⁶ times), although smaller but significant increases appear in Km. […] Although the proportion of functional active sites in Cys-24/Ala-64 enzyme preparations could not be determined directly by such active site labeling, enzyme that was purified by additional native gel electrophoresis (Example 6) had identical kinetic parameters to Cys-24/Ala-64 described in Table V.

[2] = target: β-lactamase, Serine-70 substituted with cysteine (thiol-containing β-lactamase) (Escherichia coli, UniProt P62593, S68C); details: cited from earlier work; for kcat: relative to that of a wild type enzyme
[3] = target: T1, B. amyloliquefaciens subtilisin mutant Cys-24/Ala-64 (Ser-24→Cys/His-64→Ala); test: Inhibition by the active site reagent PMSF; format: biochemical; details: concentration not given
Experimental: as §1
Several lines of evidence indicate that the activity we attribute to the Cys-24/Ala-64 enzyme is not the result of any other protease contamination. Firstly, the extreme substrate preference for His at the P2 position is unlike wild-type subtilisin or any known Bacillus protease. […] Finally, the kinetic values determined for Cys-24/Ala-64 that was additionally purified by native gel electrophoresis (Example 6) are essentially the same as these reported in Table V.

[4] = substrate: C[C@H](NC(=O)[C@H](C)NC(=O)[C@H](Cc1ccccc1)NC(=O)CCC(=O)O)C(=O)N[C@@H](Cc1ccccc1)C(=O)Nc1ccc([N+](=O)[O-])cc1; test: Kinetic analysis of hydrolysis of p-nitroanilide peptide substrates (release of ρ-nitroaniline, Eadie-Hofstee plot); format: biochemical, B. amyloliquefaciens; details: other: 0.10 M Tris-HCl (pH 8.6), 10 mM DTT, 25±0.1°C, 25.0 °C
Experimental: as §1

[5] = substrate: C[C@H](NC(=O)[C@H](Cc1ccccc1)NC(=O)CCC(=O)O)C(=O)N[C@@H](CCC(N)=O)C(=O)N[C@@H](Cc1ccccc1)C(=O)Nc1ccc([N+](=O)[O-])cc1; test: as above; format: biochemical, B. amyloliquefaciens; details: other: 0.10 M Tris-HCl (pH 8.6), 10 mM DTT, 25±0.1°C, 25.0 °C
Experimental: as §1

[6] = substrate: C[C@H](NC(=O)[C@H](Cc1ccccc1)NC(=O)CCC(=O)O)C(=O)N[C@@H](Cc1c[nH]cn1)C(=O)N[C@@H](Cc1ccccc1)C(=O)Nc1ccc([N+](=O)[O-])cc1; test: as above; format: biochemical, B. amyloliquefaciens; details: other: 0.10 M Tris-HCl (pH 8.6), 10 mM DTT, 25±0.1°C, 25.0 °C
Experimental: as §1

C[C@H](NC(=O)[C@H](Cc1ccccc1)NC(=O)CCC(=O)O)C(=O)N[C@@H](Cc1c[nH]cn1)C(=O)N[C@@H](Cc1ccccc1)C(=O)Nc1ccc([N+](=O)[O-])cc1 [His, N-succinyl-L-Phe-L-Ala-L-X-L-Phe-ρ-nitroanilide] (Suc-FAHF-pNA)
catalytic efficiency below wild-type ([1]; kcat/Km compared with wild-type subtilisin): 5,000 fold
kcat of the His P2 substrate larger than that of the Ala P2 substrate by a factor ([1]; pH 8.6, Table V data): 2,000
kcat of the His P2 substrate larger than that of the Gln P2 substrate by a factor ([1]; pH 8.6, Table V data): 500

O=C(Cc1cccs1)N[C@@H]1C(=O)N2C(C(=O)O)=C(/C=C/c3ccc([N+](=O)[O-])cc3[N+](=O)[O-])CS[C@H]12 [nitrocefin]
Km ([2]; relative to that of the wild type): greater than 10 fold

CC1(C)S[C@@H]2[C@H](NC(=O)Cc3ccccc3)C(=O)N2[C@H]1C(=O)O [benzyl penicillin]
kcat [2]: 1-2%

O=S(=O)(F)Cc1ccccc1 [PMSF, phenylmethylsulfonyl-fluoride]
inhibition by PMSF [3]: completely resistant to inhibition

CC1(C)S[C@@H]2[C@H](NC(=O)[C@H](N)c3ccccc3)C(=O)N2[C@H]1C(=O)O [ampicillin]
kcat [2]: 1-2%

B1: B. amyloliquefaciens subtilisin, recombinant Cys-24 (Ser-24→Cys; kinetically essentially identical to wild-type) (Bacillus amyloliquefaciens; S131C) (protein)
chain: AQSVPYGVSQIKAPALHSQGYTGCNVKVAVIDSGIDSSHPDLKVAGGASMVPSETNPFQDNNSHGTHVAGTVAALNNSIGVLGVAPSASLYAVKVLGADGSGQYSWIINGIEWAIANNMDVINMSLGGPSGSAALKAAVDKAVASGVVVVAAAGNEGTSGSSSTVGYPGKYPSVIAVGAVDSSNQRASFSSVGPELDVMAPGVSIQSTLPGNKYGAYNGTSMASPHVAGAAALILSKHPNWTNTQVRSSLENTTTKLGDSFYYGKGLINVQAAAQ
notes: Maturation of the primary subtilisin gene product (preprosubtilisin) to subtilisin in B. substilis is believed to be mediated by autoproteolysis; made in house
Km [4]: 10 µM
kcat [4]: 8.1 s⁻¹
kcat/Km [4]: 8.0 x 10^5 s^-1M^-1
Km [5]: 39 µM
kcat [5]: 7.0 s⁻¹
kcat/Km [5]: 1.8 x 10^5 s^-1M^-1
Km [6]: 23 µM
kcat [6]: 4.6 s⁻¹
kcat/Km [6]: 2.0 x 10^5 s^-1M^-1

B2: B. amyloliquefaciens subtilisin mutant Cys-24/Ala-64 (Ser-24→Cys/His-64→Ala) (Bacillus amyloliquefaciens; H171A/S131C) (protein)
chain: AQSVPYGVSQIKAPALHSQGYTGCNVKVAVIDSGIDSSHPDLKVAGGASMVPSETNPFQDNNSAGTHVAGTVAALNNSIGVLGVAPSASLYAVKVLGADGSGQYSWIINGIEWAIANNMDVINMSLGGPSGSAALKAAVDKAVASGVVVVAAAGNEGTSGSSSTVGYPGKYPSVIAVGAVDSSNQRASFSSVGPELDVMAPGVSIQSTLPGNKYGAYNGTSMASPHVAGAAALILSKHPNWTNTQVRSSLENTTTKLGDSFYYGKGLINVQAAAQ
Km ([4]; in the presence of PMSF): 32 µM
kcat ([4]; in the presence of PMSF): 8.1e-06 s⁻¹
kcat/Km ([4]; in the presence of PMSF): 0.25 s^-1M^-1
Km ([5]; in the presence of PMSF): 150 µM
kcat ([5]; in the presence of PMSF): 3e-05 s⁻¹
kcat/Km ([5]; in the presence of PMSF): 0.20 s^-1M^-1
Km ([6]; in the presence of PMSF): 380 µM
kcat ([6]; in the presence of PMSF): 0.016 s⁻¹
kcat/Km ([6]; in the presence of PMSF): 42 s^-1M^-1
